Paper PMC6738654, “BZU2/ZmMUTE controls symmetrical division of guard mother cell and specifies neighbor cell fate in maize”

T1: BZU2/ZmMUTE-ΔC (Zea mays, UniProt K7V1X7 1-189)
T1 sequence: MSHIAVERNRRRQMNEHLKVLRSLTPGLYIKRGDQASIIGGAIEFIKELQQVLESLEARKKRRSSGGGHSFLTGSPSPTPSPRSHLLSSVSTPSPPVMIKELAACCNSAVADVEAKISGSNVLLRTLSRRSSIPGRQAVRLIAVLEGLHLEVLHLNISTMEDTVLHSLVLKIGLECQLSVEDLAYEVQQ


Target: T1, BZU2/ZmMUTE-ΔC
Assay: EMSA; cold probe competitor 2-, 5-, 10-fold; LightShift Chemiluminescent EMSA Kit (Thermo) per manufacturer; buffer, salt, pH and temperature not stated
Details: protein: recombinant; chain copies: 2; label: 5' biotin (cold probe unlabeled); blunt

| Binder | binding result |
| --- | --- |
| P1 (PAN1 promoter E-box -27) (dsDNA) DNA 1: GAATGAGGGGCACCTGGAGAGCACAT DNA 2: ATGTGCTCTCCAGGTGCCCCTCATTC | binds |
| P2 (PAN2 promoter E-boxes -187, -200) (dsDNA) DNA 1: CAGCCACAACAGGTGTCCCTTTCAAGTGATCTCTGCA DNA 2: TGCAGAGATCACTTGAAAGGGACACCTGTTGTGGCTG | binds |
